Results taken from the DeepSol protein solubility set.

Experiment: soluble on expression in E. coli; label from the status in PepcDB or PDB records

Sequence | soluble on expression in E. coli
GSMIRSTLSSWREYLTPITHKSTFLTTGQITPEEFVQAGDYLCHMFPTWKWNEESSDISYRDFLPKNKQFLIIRKVPCDKRAEQCVEVEGPDVIMKGFAEDGDEDDVLEYIGSETEHVQSTPAGGTKDSSIDDIDELIQDMEIKEEDENDDTEEFNAKGGLAKDMAQERYYDLYIAYSTSYRVPKMYIVGFNSNGSPLSPEQMFEDISADYRTKTATIEKLPFYKNSVLSVSIHPCKHANVMKILLDKVRVVRQRRRKELQEEQELDGVGDWEDLQDDIDDSLRVDQYLIVFLKFITSVTPSIQHDYTMEGW | soluble
GSNEIKRGAVDLIKTGVNEKAMAGAVFSLFKKDGTEVKKELATDANGHIRVQGLEYGEYYFQETKAPKGYVIDPTKREFFVKNSGTINEDGTITSGTVVKMEVKNNEEPTIDKKINGKLEALPINPLTNYNYDIKTLIPEDIKEYKKYVVTDTLDNRLVIQGKPIVKIDGAEVNANVVEVAIEGQKVTATVKDFTKMDGKKEFHLQIKSQVKEGVPSGSEILNTAKIHFTNKNDVIGEKESKPVVVIPTTGIIELTKIDSANKNKMKGAEFVLKDNNGKIVVVAGKEVTGVSDENGVIKWSNIPYGDYQIFETKAPTYTKEDGTKTSYQLLKDPIDVKISENNQTVKLTIENNKS | soluble
GSPNSPATGEKKECWSWESYLEEQKAITAPVSLFQDSQAVTHNKNGFKLGMKLEGIDPQHPSMYFILTVAEVCGYRLRLHFDGYSECHDFWVNANSPDIHPAGWFEKTGHKLQPPKGYKEEEFSWSQYLRSTRAQAAPKHLFVSQSHSPPPLGFQVGMKLEAVDRMNPSLVCVASVTDVVDSRFLVHFDNWDDTYDYWCDPSSPYIHPVGWCQKQGKPLTPPQDYPDPDNFCWEKYLEETGASAVPTWAFKVRPPHSFLVNMKLEAVDRRNPALIRVASVEDVEDHRIKIHFDGWSHGYDFWIDADHPDIHPAGWCSKTGHPLQPPLGPREPSSAVDSSGRIVTD | soluble
GSPQLRQVGQIIRVPARMAATLILEPAGRCCWDEPVRIAVRGLAPEQPVTLRASLRDEKGALFQAHARYRADTLGELDLERAPALGGSFAGLEPMGLLWALEPEKPLVRLVKRDVRTPLAVELEVLDGHDPDPGRLLCQTRHERYFLPPGVRREPVRVGRVRGTLFLPPEPGPFPGIVDMFGTGGGLLEYRASLLAGKGFAVMALAYYNYEDLPKTMETLHLEYFEEAMNYLLSHPEVKGPGVGLLGISKGGELCLSMASFLKGITAAVVINGSVANVGGTLRYKGETLPPVGVNRNRIKVTKDGYADIVDVLNSPLEGPDQKSFIPVERAESTFLFLVGQDDHNWKSEFYANEACKRLQAHGRRKPQIICYPETGHYIEPPYFPLCRASLHALVGSPIIWGGEPRAHAMAQVDAWKQLQTFFHKHLGGHEGTIPSKVLEHHHHHH | soluble
GSQEVRRGDFVRNWQLVAAVPLFQKLGPAVLVEIVRALRARTVPAGAVICRIGEPGDRMFFVVEGSVSVATPNPVELGPGAFFGEMALISGEPRSATVSAATTVSLLSLHSADFQMLCSSSPEIAEIFRKTALERRGAAASA | soluble
GSRTGSESSRPNTALLDPSSPEFSAVVSVGDWLQAIKMDRYKDNFTAAGYTTLEAVVHMSQDDLARIGITAITHQNKILSSVQAMRTQMQQMHG | soluble
GSSGARCYVDGSEEIGSDFKIKCEPKEGSLPLQYEWQKLSDSQKMPTSWLAEMTSSVISVKNASSEYSGTYSCTVRNRVGSDQCLLRLNVVPPSNK | soluble
GSSSGGGSSSSGTSSAFSSYFNNKVGIPQEHVDHDDFDANQLLNKINE | soluble
GSVVIVGRIILSGSGSITAYSQQTRGLLGCIITSLTGRDKNQVEGEVQVVSTATQSFLATCVNGVCWTVYHGAGSKTLAGPKGPITQMYTNVDQDLVGWQAPPGARSLTPCTCGSSDLYLVTRHADVIPVRRRGDSRGSLLSPRPVSYLKGSSGGPLLCPSGHAVGIFRAAVCTRGVAKAVDFVPVESMETTMRSPVFTDNSSPPAVPQSFQVAHLHAPTGSGKSTKVPAAYAAQGYKVLVLNPSVAATLGFGAYMSKAHGIDPNIRTGVRTITTGAPVTYSTYGKFLADGGCSGGAYDIIICDECHSTDSTTILGIGTVLDQAETAGARLVVLATATPPGSVTVPHPNIEEVALSNTGEIPFYGKAIPIEAIRGGRHLIFCHSKKKCDELAAKLSGLGINAVAYYRGLDVSVIPTIGDVVVVATDALMTGYTGDFDSVIDCNTCVTQTVDFSLDPTFTIETTTVPQDAVSRSQRRGRTGRGRRGIYRFVTPGERPSGMFDSSVLCECYDAGCAWYELTPAETSVRLRAYLNTPGLPVCQDHLEFWESVFTGLTHIDAHFLSQTKQAGDNFPYLVAYQATVCARAQAPPPSWDQMWKCLIRLKPTLHGPTPLLYRLGAVQNEVTLTHPITKYIMACMSADLEVVT | soluble
GTEETAKVVPMAVITPAINQLTDQEKAEGWALLFDGKTTKGWRGAHKDAFPDHGWMVKDGELIVQKSDGSESTNGGDIVTEGEYSAFEFSVDFKITEGANSGIKYFVTEQEKQKGSAYGLEFQLLDDAKHPDAKLYTTFPGSRTLGSLYDLKKSENIHFNGVGEWNTAVVKVFPNNHVEHWLNGVKVLEYERGSKEFRDLVKGSKYADPSYNAGGAFGEAPKGHILLQDHGDEVAFRNIKVKELK | soluble
GTIVITGTITDTTCVIEDPSGPNHTKVVQLPKISKNALKANGDQAGRTPFIIKLKDCPSSLGNGVKAYFEPGPTTDYSTGDLRAYKMVYATNPQTQLSNITAATEAQGVQVRISNLNDSKITMGANEATQQAAGFDPEVQTGGTSRTVTMRYLASYVKKNGDVEASAITTYVGFSVVYP | not soluble
GTREQALGPALSFSTEGEFLKVRILDPVADSRRYNEEFKAQGLDIELVLIPASPSQVGQADGQLYSGSNTRQRIRFESVPAGCVEAATYPCVPEFTIPKDYRGTARFGINRAAAPGEQYAATGALNGRDEPLEGIQWLNRPVGEISAILRQRGFSITYRWPTGRQNPNATPPPTWYVIEPSFARQNNLVELEVSPRPMK | not soluble
GVLAPVVPGKALEFPQDFGAHNDFRIEWWYVTGWLETPTGKPLGFQITFFRTATEIDRDNPSHFAPDQLIIAHVALSDPAIGKLQHDQKIARAGFDLAYARTGNTDVKLDDWIFVRETDGRYRTRIEAEDFTLTFILTPSQPLMLQGENGFSRKGPGAPQASYYYSEPHLQVSGIINRQGEDIPVTGTAWLDREWSSEYLDPNAAGWDWISANLDDGSALMAFQIRGKDDSKIWAYAALRDASGHTRLFTPDQVSFHPIRTWRSARTQAVYPVATRVLTGETEWQITPLMDDQELDSRASAGAVYWEGAVTFTRDGQPAGRGYMELTGYVRPLSM | soluble
GYIVDMSKWNGSPDWDTAKGQLDLVIARVQDGSNYVDPVYKDYVAAMKARNIPFGSYAFCRFVSVEDAKVEARDFWNRGDKDSLFWVADVEVTTMSDMRAGTQAFIDELYRLGAKKVGLYVGHHKYEEFGAAQIKCDFTWIPRYGAKPAYPCDLWQYDEYGQVPGIGKCDLNRLNGDKSLDWFTGKGEE | soluble
HDAIFILDKQGRLTWINQSYSALSGNTLEDIEGKDLPSILQLDKIKHANIIILLQSLETGTSISFELTNHHKDGTLFWIDVSITPILEPN | not soluble
HEGVHRKPSLLAHPGPLVKSEETVILQCWSDVRFQHFLLHREGKFKDTLHLIGEHHDGVSKANFSIGPMMQDLAGTYRCYGSVTHSPYQLSAPSDPLDIVITGLYEKPSLSAQPGPTVLAGESVTLSCSSRSSYDMYHLSREGEAHERRFSAGPKVNGTFQADFPLGPATHGGTYRCFGSFRDSPYEWSNSSDPLLVSVTGNPSNSWPSPTEPSSETGNPRHLHAAAEQKLISEEDLNLDLVPRGSSSHHHHHHSSG | soluble
HHHHHHMTTINPTNYTLLKKQAASLIEDEHHMIAILSNMSALLNDNLDQINWVGFYLLEQNELILGPFQGHPACVHIPIGKGVCGTAVSERRTQVVADVHQFKGHIACDANSKSEIVVPIFKDDKIIGVLDIDAPITDRFDDNDKEHLEAIVKIIEKQLA | soluble
HITLNYLSKTLGMHQTINVILPEDKSYFDTNENAKPLKTMLLLHGLSSDTSSYMRYTSIERYANTHQLAVVMPNADHSFYSNMAYGHSYYDYILEVYDYVHQILPLSKKREDNFIAGHSMGGYGAIKFALTQSYRFSKAAMLSAPYDVSMIGQYQWYDFTPEAIVGNTQHVAGTSFDPYYLVEQAIDNGQALPQLYITCGTEDELYQGNIDFVNYLDEKGIPYQFKKAPGNHDYAFWDKAIEDVIDRF | not soluble
HMMQSWSAPAIPVVPGRGPALRLFDSADRQVRPVTPGPTATMYVCGITPYDATHLGHAATYLTFDLVHRLWLDAGHTVQYVQNVTDVDDPLFERAERDGIDWRTLGDRETQLFREDMAALRVLPPHDYVAATDAIAEVVEMVEKLLASGAAYIVEDAEYPDVYFRADATAQFGYESGYDRDTMLTLFAERGGDPDRPGKSDQLDALLWRAERPGEPSWPSPFGRGRPGWHVECSAIALTRIGTGLDIQGGGSDLIFPHHEYSAAHAESVTGERRFARHYVHTGMIGWDGHKMSKSRGNLVLVSQLRAQGVDPSAIRLGLFSGHYREDRFWSNEVLDEANARLARWRSATALPEAPDATDVIARVRQYLADDLDTPKALAALDGWCTDALSYGGHDTESPRLVATTVDALLGVDL | soluble
HPHVENFTIIGSGFQAETQLEGMITVSHPQSIRVYSRNYDHAKDFASRMSKQFGVDIRPVDNAEAALSDADTVSSITNSTSPVILRKYLGDEYHVNLAGSNYMNRREAEYEVLHDADLVVTEHYDQSMVESAEISEYVKFGGKPVELREIAGRYGEFSGLRRTVFKSMGIGLEDIATAYRVLRNLGIA | not soluble
HRPLNPAMVAFSNDPLLNDLALNSSYSLLFAVNNMKSEKSAEQFYGKMDNQKMLDLVRASSTKIDFDPTLLPTMNSNPATYQGKRKNLVILLQESLGAQFVGSLGGLPLTPNLDELMQEGWQFTQMYATGTRSVRGIEAVTTGFPPSPSRAVVKLSKSQTGFFTIADLLKEQGYHTQFIYGGEANFDNMKTFFFGNGFDQIVEEKNYTNPGFVGSWGVSDEDLYNKADEEFERLSKGDKPFFSLVFTSSNHSPYEYPEGKIEQYDSEHMTRNNAVKYSDYALGTFFDKAKKSSYWDDTIFIVIADHDARVFGANLVPVKHFHIPALIIGKDIQPRKDDRIANNIDMPPTLLSLIGVDAKTPMIGRDLTKPLAREDERAMMQYDKNFGYLTRDNLVVLSPGEKVSTMEYDFESQTMKPLEVDESVIDRAKANALFASKAYQNNWYSSKRTN | soluble
HRSGGFPVYKNTKVTYFPNGQSKFEEMKKQLLKAEKFIFLEYFIIAEGLMWGEILSILEQKVQEGVEVRVMYDGMLELSTLSFDYAKRLEKIGIKAKVFSPITPFVSTYYNYRDHRKILVIDNKVAFNGGINLADEYINQIERFGYWKDTAVMLEGEGVASFTLMFLQMWSTTNKDYEFAPYLTQNFHEIVANGYVIPYSDSPLDHEKVGENV | not soluble
HRVGLYEKALPNHLSWEEKLACTKELGFDFLEISVDESDERRSRLDWDDATIYSLHRLCEEYGVPLQSMCLSAHRKFPFGSADPALRDEALKIMQKAITLAYKLGIRTIQLAGYDVYYEPANSATHQRFIEGMQHAARLAERAGVMLAVEIMDTPYLNALSKFEVLNRQIQSPFFTAYPDVGNISGWNYDLLTELSLSKPHITQIHLKDTYKVSEQYAGQFRDLVIGEGDVDFDELFCRLKALDCVVPLVIEMWAHDEQWQQHIHTAQRRLNQACDRAELP | not soluble
